Reference: the nanobody polyreactivity screen of Harvey et al. (2022)

Experiment: yeast display, Sf9 membrane polyspecificity reagent, FACS + sequencing; frameworks hold sequencing errors
In short: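 Polyreactivity labels are assigned by the sorting gate from which each nanobody was recovered. The gates were low and high (top ~1%), set on anti-HA fluorescence for expression and streptavidin fluorescence for reagent binding. Before sorting, galactose-induced (36–48 hours) yeast display cells were stained for 1 hour at 4 °C with 10% biotinylated, detergent-solubilized Sf9 membrane reagent.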

Row | Sequence | polyreactivity (PSR sort gate)
1 | KVQLVESGGGLVQAGGSLRLSCAASGSIFPSYVMGWYRQAPGKERELVAAITKSTGTTYYADSVKGRFTISRDNAKNTVYLQMNSLKPEDTAVYYCNAPYWFSPGYGGFEFGYDYWGQGTQVTVSS | low polyreactivity
2 | QVQLVESGGGLVQAGGSLRLSCAASGSTFLYYDMGWYRQAPGKERELVADITWSGSGTYYADSVKGRFTISRDNAKNTVYLQMNSLKPEDTAVYYCAADDTWRGDQYFYSYDYWGQGTQVTVSS | low polyreactivity
3 | QVQLVESGGGLVQAGGSLRLSCAASGFTFSTYAMGWYRQAPGKERELVAAISRSGGSTYYADSVKGRFTISRDNAKNTVYLQMNSLKPEDTAVYYCAADGLRRESSYYYWGQGTQVTVSS | high polyreactivity
4 | QVQLVESGGGLVQAGGSLRLSCAASGRIFQGNAMGWYRQAPGKERELVAAITSSGSSTYYADSVKGRFTISRDNAKNTVYLQMNSLKPEDTAVYYCAARATGPIMYYWGQGTQVTVSS | high polyreactivity
5 | QVQLVESGGGLVQAGGSLRLSCAASGSTFDTYAMGWYRPAPGKERELVAAINSGGGTNYADSVKGLFTISRDNAKNTVYLQMNSLKPEDSSVYYCSTDIRRDAGGVDFDYWGQGTQLTVSS | low polyreactivity
6 | QVQLVESGGGLVQAGGSLRLSCAASGRTFWRNAMGWYRQAPGKERELVAAISRGASTNYADSVKGRYTISRDNAKNTVYLQMNSLKPEDTAFYYCAARYYYRYNYWGQGTQVTVSS | high polyreactivity
7 | QVQLVESGGALVQARGSLRLSCSASGSTFFHNFKGWYRQEPGKERELVAAISGSGTRSYYADSVKGRFTISRDNAKNTVYLQMNSLKPEDTAVYYCNVVPLRVPSYLPKYYYWGQGTQVTVSS | high polyreactivity
8 | QVQLVESGGGLVQAGGSLRLSCAASGRIFFYYAMGWYRQAPGKERELVAAISKSGGRTYYADSVKGRFTISRDNAKNTVYLQMNSLKPEDTAVYYCAAYSAHDSDYWGQGTQVTVSS | high polyreactivity
9 | QVQLVESGGGLVQAGGSLRLSCAASGSTFILYAMGWYRQAPGKERELVAAISSDGSTYYADSVKGRFTISRDNAKNTVYLQMNSLKPEDTAVYYCAAYGYDADTGYDYWGLGTQVTVSS | low polyreactivity
10 | QVQLVESVAGLVQAGGSLRLSCAASGSTFTGNAMGWYRQAPRKERELVAAITKGGSRTYYADSVKGRFTISRDNAKNTVYLQMNSLKPEDTAVYYCAAIERYSYLLYPKFDYWGQGTQVTVSS | high polyreactivity
11 | QGQRVESGGGLVQAGGSLRLSCAASGRIFTQYAMGWYRQAPGKARELVAASNASDGSTYADSVKGRFTISRDNAKNTVYIQINSLKPEDTAVYYCNVTGGPYDFTRWSEFDHWGQGTHVTVSS | low polyreactivity
12 | QVQLVDSGGGLVQAGGTLRLSCGASGLIFYLYAMGWFRQAPGKERELVAAITYSGGSTRYADSVKGRFTISRDNAKNTVYFQKNSLKPEDTAVYYCNAAGTAPTELDYWGQGSQVTVSS | low polyreactivity
13 | QVQLVESGGGLVQAGGSLRLSCAASGSTFDIYALGWDRQAPGKEREMVAVISGGDGSTYYADSVKGRFTISRDNEKNTVYLQMNSLKPEETAVYYFAADRGTVSYLYSPRAVDYWGQGTQVTVSS | low polyreactivity
14 | QVQLVESGGGLVQAGGSLRLSCAASGSILVYNAMGWYRQAPGKERELVDAISNTGRTYYADSVKGRFTISRDNAKNTVYLQMNSLKPEDTAVYYCADRFYRVLHRFGYWGQGTQVTVSS | high polyreactivity
15 | QVQLVESGGGLVQAGGRLRLSCAASGSIFDSYVMGWYRQAPGKERELVAAITYSGGSTYADSVKGRFTISRDNAKNTVYLEMNSLKPEDTAVYYCAAASYFYLYLLEDYWGQRTQVTVSS | low polyreactivity
16 | QVQLVESGGGLVQAGGSLRLSCAASGSIFYYYAMGLYRQAPGKERELVAAITRRGGNTYYADSVKGRFTISRDNAKNTVYLQMNSLKPEDTAVYYCNAPGFAWYTTKYDYWGQGTQVTVSS | low polyreactivity
17 | QVQLVESGGGLVQAGGSLRLSCAASGFTFSRYAMGWYRQAPGKERELVAAISYSGGRTYYADSVKGRFTISRDNAKNTVYLQMNSLKPEDTAVYYCNATWQSGHGWGQGTQVTVSS | high polyreactivity
18 | QVQLVESGGGLVQAGGSLRLSCAASGFTLPLYAMGWYRQAPGKERELVATISSGGTTYYADSVKGRFTISRDNAKNTVYLEMNCLKPEDTGVYYCAAGGTFFHRFYYYYRSDYWGQGTQVTVSS | high polyreactivity
19 | QVQLVESGGGLVQAGGSLRLSCAASGSTIVYYAMGWYRQAPGKERELVAAITSDGSTDYADSVKGRFTISRDNAKNTVYLQMNSLKPEDTAVYYCAVVTFYFCTDYYDVDYWGQGTQVTVSS | low polyreactivity
20 | QVQLVESGGGLVQAGGSLRLSCAASGFIFYDYDMGCYRQAPGKERELVAAITYSGGSTYYADSVKGRFTISRDNAKNTVYLQMNSLKPEDTAVYYCAAVKSRYAEAVDYYYWGQGTQVTVSS | low polyreactivity
21 | QVQLVESGGGLVQAGGSLRLSCAASGRTFKKYAMGWYRQAPGKERELVAAITSRGGSTYYADSVKGRFTISRDNAKNTVYLQMNSLKPEDTAVYYCNAVRGWLYVFSYPYWDDEYWGQGTQVTVSS | high polyreactivity
22 | QVQLVESGGGLVQAGGSLRLSCAAYGRIFSYYAMGWYRQAPGKERELVATINSGGSTNYADSVKGRFTISRDNAKNTVYLQMNSLKPEDTAVYYCDASPVWWYDYWGQGTQVTVSS | low polyreactivity

Row | Sequence | polyreactivity (PSR sort gate)
23 | QVQLQECGGGLVQEGGSLRLSCAASGTYSNSVKWLYCQAPGKEREFVATIGVGGSTNYADSVKGRFTISRDIAKNSVYLQMNSLKPDDTAVYHCSAYGAASNFHYYRGQGTQVTVSS | low polyreactivity
24 | QVQVVESGGGLVQAGGSLRISCAASGRISVVHAMGWYRQAPGKERELVATINSGGSTYADSVKGRFTNSRDNAKNNVFFQMISQIPEDTAFYYCSARTFRISRLDFWGQCTQVTVSS | high polyreactivity
25 | QVQLVESGGGLVQAGGSLRLSCAASGRIFGYYAMGWYRQAPGKERELVAAISDGGSTDYADSVKGRFTISRDNAKNTVYLQMNSLKPEDTAVYYCNADRLYLYNVEYDYWGQGTQVTVSS | low polyreactivity
26 | QVQLVESGGGLVQAGGSLRLSCAASGSTFGPYARGWSRQAPGKERELVSTITRNGGSTYYADSVKGRFTISRDNAKNTVYLQMNSLKPEDTAVYYCNAEGRWSSFTQRMDYWGQGTQVTVSS | low polyreactivity
27 | QVQLVESGGGLVQAGGSLRLSCAASGFTFQRYAMGWYRQAPGKERELVATINWSGRTYYADSVNGRFTISRDNAKNTVYLQMNSLKPEDTAVYYCAAERIQYGWWVLFDYWGQGTQVTVSS | high polyreactivity
28 | QFQLVESGGGLVQAGGSLRLSCAASGYTFGQYDMGWYRQAPGKERELVAAISTGGVSTYYADSVKGRFTISRDNAKNTVYLQMNSLKPEDTAVYYCATTPYVRYDYWGQGTQVTVSS | low polyreactivity
29 | QVQHVESGGGLVQAGGSLRLSCAASGSIFWYYAMGWYRKAPVKERELVAAITSSGGRTYYADSVKGRFTISRDNAKNTVYLQMNSLKQEDTAVYYCAARQWWRYDYWGQGTQVTVSS | high polyreactivity
30 | QVQLVESGGGLVQAGGSRRLSCAASGFTFPHYLGRYRQAPGKERELVAAIIVSGGSTSYADSVKGRFTMSRDNAKNTVYLQMNSLKPEDTAVYYCAKDLRFRLFSYPSDYWGQGTQVTVSS | low polyreactivity
31 | QVQLVESGGGLVQAGGSLRLSCAASGGTFVYYAMGWYRQAPGKERELVAAITSRGTSTYYADSVKGRFTISRDNAKNTVYLQMNSLKPEDTAVYYCAAGTPRGILRNSSYNYWGQGTQVTVSS | high polyreactivity
32 | QVQLVESGGCLVQAGGSLRLSCAASGFTFTTYAMGWYRQAPGKEREFVAALTKRGGRTYYADSVKGRFTISRDNAKITVYLQMNSLKPEDTAVYYCNKVVHSFPFPYRYDMDYWGQGTQVTVSS | high polyreactivity
33 | QVQLVESGVGLVQAGGSLRLSCAASGRIFHINAMGWYRQAPGKERELVATISGTDRTTYADSVKGRFTISRDNAKNTVYLQMNSLKPEDTAVYYCAAPTDFLFWEFDYWGQGTQVTVSS | low polyreactivity
34 | QVQLVESGGGLDQAGGSLRLSCAASGSIFAYAMPLYRQAPGKERELVASISTSTDITYADSVKGRFTISRDNAMNSVYFLMNSLKPEDTAVYYCAATYWQWWGWYDYWGEGTQVTVSS | high polyreactivity
35 | QVQLVESGGGLVQAGGSLRLSCAASGFIFGINAMGWYRQAPWKERELVAAISTGDRTNYADSVKGRFTISRDNAKNTVYLQMNSLKPEDTAVYYCAKDWRRNRPYEWTYDYWGQGTQVTVSS | low polyreactivity
36 | QVQLVESGGGLVQAGGSLRLSCAASGRIFSTNAMGWYLQAPGKERELVAGINSGGSTNYADSVKGRFTISRDNAKNTVYLQMNSLKPEDTAVYYCNASLPVDSWYVQYGVDYDYWGQVTQVTVSS | low polyreactivity
37 | QVQLVESGGGLVQAGGSLRLSCAASGSTFRVNAMGWYRQAPGKERELVAAISYRGGSTYYADSVKGRFTISRDNAKNTVYLQMNNLKPEDTAVYYCNADLKRRTYGPDSYYWGQGTQVTVSS | high polyreactivity
38 | QVQLVESGGGLVQAGGSLRLSCAASGSTFLYNAMGWYRQAPGKERELVAAITIGGGSTYYADSVKGRFTISRDNAKNTVYLQMNSLKPEDTAVYYCNKGSYYWWDPGSTYIDDYWGQGTQVTVSS | low polyreactivity
39 | QVQLVESGGGLDQAGGSLRLSCAASGRTFGWYAMGWYRQAPGTERELVAVISSSGGRTYYADSVKGRFTISRDNAKNTVYLQLNSLKPEDTAVYYCATPNGSKRYSYYYWGQGTQVTVSS | high polyreactivity
40 | QVQLVESGGGLVQAGGSLRLSCAASGLTFIFNTMGWYRQAAGKERVLVAAISTSGGSTYYADSVKGRFTISRDNANNTVYLQMNSVKQEDTAFYYCAKEFKYWGYPYEYWGQGTLVTVSS | low polyreactivity
41 | QVHLVESGGGLVQAGGSLRLSCAASGYTSKTYAMGWYRQAPGKEMELVAAINWGSGSTYYADSVKGRFTISRDNAKNTVYLQMNSLKPEDTAVYYCAAEGYYNWYVGYGYWGQGTQVTVSS | high polyreactivity
42 | QVQLVESVGALVQAGGSLRLSCAASGSIFGSNAMGGYRQAPGKERELVAAITWSGTSTYYADSVKGRFTISRDNAKNTVYLQMNSLKPEDTAVYYCARGGYVRAARLVIPYYYWGQGTQVTVSS | low polyreactivity
43 | QVQLVESVGGLVQAGASLRLSCAASGRTFATYAKGWYRQAPGKERELVAAISRSGGSTYYADSVKGRFTISRDNAKNTVYLQMHSLKPEDTAGYYCAARYVRQYYRAEDYWGQGTQVTVSS | high polyreactivity
